In the supplement of paper PMC5998384:

Legend:
[1] = system: HeLa Kyoto; assay: solubility in G1/S (NP-40 vs SDS abundance) (log2 ratio); higher = more soluble; details: cell cycle stage: G1/S
[2] = system: HeLa Kyoto; assay: solubility change mitosis vs G1/S (difference of NP-40 vs SDS log2 ratios) (log2 ratio difference); higher = more soluble in mitosis
[3] = system: HeLa Kyoto; assay: thermal stability score vs G1/S (z-score of summed log2 fold changes over temperatures); higher = more thermally stable than in G1/S
[4] = cell cycle stage: early G1 (4.5 h after nocodazole release)
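For solubility change mitosis vs G1/S (difference of NP-40 vs SDS log2 ratios) in this document: synchronized HeLa Kyoto cells (double thymidine block for G1/S, nocodazole release for mitosis), protein amounts in NP-40 versus SDS lysates quantified by mass spectrometry, three biological replicates.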
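For solubility in G1/S (NP-40 vs SDS abundance) in this document: HeLa Kyoto cells arrested at G1/S by double thymidine block, proteins quantified by TMT10plex mass spectrometry in mild NP-40 versus SDS extracts, three biological replicates.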
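For thermal stability score vs G1/S (z-score of summed log2 fold changes over temperatures) in this document: synchronized HeLa Kyoto cells, proteins quantified by TMT10plex mass spectrometry, three biological replicates, mitosis taken 0.5 h after nocodazole release, G1/S directly after double thymidine block.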

ATRN, sequence (chain, as listed by the source): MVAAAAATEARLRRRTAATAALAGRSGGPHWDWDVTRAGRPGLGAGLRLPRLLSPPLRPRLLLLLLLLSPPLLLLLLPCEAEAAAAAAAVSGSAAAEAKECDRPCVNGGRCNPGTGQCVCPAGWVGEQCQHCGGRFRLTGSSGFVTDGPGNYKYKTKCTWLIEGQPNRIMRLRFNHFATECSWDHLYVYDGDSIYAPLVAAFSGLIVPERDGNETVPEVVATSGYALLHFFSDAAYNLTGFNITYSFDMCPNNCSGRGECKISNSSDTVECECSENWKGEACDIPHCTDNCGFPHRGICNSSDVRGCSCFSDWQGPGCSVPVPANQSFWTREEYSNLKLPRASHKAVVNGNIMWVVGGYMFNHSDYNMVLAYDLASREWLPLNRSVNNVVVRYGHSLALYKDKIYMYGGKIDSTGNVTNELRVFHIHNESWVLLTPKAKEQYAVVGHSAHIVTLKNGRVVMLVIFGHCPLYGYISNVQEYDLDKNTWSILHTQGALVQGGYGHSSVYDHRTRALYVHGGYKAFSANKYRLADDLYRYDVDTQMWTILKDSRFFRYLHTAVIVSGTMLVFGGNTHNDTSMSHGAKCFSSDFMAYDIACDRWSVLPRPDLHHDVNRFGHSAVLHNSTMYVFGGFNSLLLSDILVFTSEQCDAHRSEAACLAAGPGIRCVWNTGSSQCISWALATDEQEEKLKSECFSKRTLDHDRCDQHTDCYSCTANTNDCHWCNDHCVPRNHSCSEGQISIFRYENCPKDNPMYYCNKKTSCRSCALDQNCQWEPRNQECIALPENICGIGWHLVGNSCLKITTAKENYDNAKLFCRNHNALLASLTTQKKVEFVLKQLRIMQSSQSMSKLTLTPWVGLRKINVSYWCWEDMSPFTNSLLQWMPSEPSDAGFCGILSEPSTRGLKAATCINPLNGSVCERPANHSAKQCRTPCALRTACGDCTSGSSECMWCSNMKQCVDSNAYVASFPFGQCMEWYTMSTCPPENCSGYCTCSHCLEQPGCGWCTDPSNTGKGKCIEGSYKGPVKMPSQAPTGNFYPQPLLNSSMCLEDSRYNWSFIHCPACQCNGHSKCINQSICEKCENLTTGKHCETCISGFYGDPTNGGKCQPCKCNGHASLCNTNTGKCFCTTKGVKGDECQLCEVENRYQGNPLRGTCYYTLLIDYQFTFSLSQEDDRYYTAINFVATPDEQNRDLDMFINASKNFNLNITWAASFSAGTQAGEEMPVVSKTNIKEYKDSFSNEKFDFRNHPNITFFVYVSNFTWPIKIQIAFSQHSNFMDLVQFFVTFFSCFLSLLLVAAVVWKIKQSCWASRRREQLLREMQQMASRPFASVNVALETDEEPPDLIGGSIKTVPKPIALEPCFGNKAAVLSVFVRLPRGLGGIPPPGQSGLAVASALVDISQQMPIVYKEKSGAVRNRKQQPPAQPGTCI
LMTK2, sequence (chain, as listed by the source): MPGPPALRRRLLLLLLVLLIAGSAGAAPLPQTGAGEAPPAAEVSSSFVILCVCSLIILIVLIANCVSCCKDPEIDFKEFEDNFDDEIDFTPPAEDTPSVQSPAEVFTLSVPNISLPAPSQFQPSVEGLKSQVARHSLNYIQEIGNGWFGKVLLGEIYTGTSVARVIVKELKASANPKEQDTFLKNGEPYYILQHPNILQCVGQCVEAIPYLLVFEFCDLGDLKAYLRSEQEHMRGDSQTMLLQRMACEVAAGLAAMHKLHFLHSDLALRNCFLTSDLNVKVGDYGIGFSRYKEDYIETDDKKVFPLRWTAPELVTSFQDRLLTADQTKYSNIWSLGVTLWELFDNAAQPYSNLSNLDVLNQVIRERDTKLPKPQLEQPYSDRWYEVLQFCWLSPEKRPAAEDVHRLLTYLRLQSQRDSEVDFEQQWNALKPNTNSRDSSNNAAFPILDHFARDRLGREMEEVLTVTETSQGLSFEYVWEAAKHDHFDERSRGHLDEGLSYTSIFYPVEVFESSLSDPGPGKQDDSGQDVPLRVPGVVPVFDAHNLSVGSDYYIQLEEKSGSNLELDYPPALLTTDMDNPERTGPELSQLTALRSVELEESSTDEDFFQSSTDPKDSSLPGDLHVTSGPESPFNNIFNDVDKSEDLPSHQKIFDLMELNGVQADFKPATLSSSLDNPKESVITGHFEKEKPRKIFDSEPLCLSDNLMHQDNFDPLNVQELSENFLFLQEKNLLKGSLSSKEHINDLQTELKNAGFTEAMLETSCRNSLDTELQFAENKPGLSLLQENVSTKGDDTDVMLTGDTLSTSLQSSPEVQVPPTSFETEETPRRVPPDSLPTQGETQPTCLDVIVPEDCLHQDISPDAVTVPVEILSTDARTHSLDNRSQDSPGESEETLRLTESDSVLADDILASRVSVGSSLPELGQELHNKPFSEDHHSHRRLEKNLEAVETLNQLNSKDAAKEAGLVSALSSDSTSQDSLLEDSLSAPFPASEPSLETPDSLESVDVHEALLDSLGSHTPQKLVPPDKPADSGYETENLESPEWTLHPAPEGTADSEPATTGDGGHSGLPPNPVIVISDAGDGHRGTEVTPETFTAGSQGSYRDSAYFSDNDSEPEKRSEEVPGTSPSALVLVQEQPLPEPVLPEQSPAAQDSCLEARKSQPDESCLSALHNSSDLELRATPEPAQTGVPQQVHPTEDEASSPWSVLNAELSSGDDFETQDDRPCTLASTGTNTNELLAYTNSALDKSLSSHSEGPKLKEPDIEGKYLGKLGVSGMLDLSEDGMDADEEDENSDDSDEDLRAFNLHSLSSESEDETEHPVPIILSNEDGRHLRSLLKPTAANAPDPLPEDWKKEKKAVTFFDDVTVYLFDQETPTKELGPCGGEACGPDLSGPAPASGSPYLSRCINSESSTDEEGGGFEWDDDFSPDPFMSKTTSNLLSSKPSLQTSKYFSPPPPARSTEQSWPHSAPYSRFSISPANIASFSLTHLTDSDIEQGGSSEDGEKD
CLK3, sequence (chain, as listed by the source): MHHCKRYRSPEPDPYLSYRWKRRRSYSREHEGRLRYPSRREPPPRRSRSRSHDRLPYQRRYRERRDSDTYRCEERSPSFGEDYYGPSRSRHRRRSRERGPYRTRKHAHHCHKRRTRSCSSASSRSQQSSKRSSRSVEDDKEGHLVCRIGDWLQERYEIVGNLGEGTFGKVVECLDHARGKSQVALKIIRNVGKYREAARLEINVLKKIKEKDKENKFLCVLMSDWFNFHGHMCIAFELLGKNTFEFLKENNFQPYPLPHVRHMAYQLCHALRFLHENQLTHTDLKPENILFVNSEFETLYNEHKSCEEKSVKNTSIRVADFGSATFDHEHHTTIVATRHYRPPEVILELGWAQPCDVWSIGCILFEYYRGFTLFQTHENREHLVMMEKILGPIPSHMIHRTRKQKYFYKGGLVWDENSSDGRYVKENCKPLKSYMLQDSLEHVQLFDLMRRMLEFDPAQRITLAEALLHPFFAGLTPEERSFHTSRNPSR

## ALG12
[1]
  solubility in G1/S (log2): -0.268
[2]
  solubility change mitosis (log2): -0.0892

## ARAP3
[1]
  solubility in G1/S (log2): 0.016
[2]
  solubility change mitosis (log2): -0.158

## ARHGEF11
[1]
  solubility in G1/S (log2): -0.0113
[2]
  solubility change mitosis (log2): -0.0196

## ATG2A
[1]
  solubility in G1/S (log2): -0.135
[2]
  solubility change mitosis (log2): -0.036

## ATRN
[1]
  solubility in G1/S (log2): 0.238
[2]
  solubility change mitosis (log2): -0.041

## BCORL1
[1]
  solubility in G1/S (log2): -0.267
[2]
  solubility change mitosis (log2): 0.348

## CBWD1
[1]
  solubility in G1/S (log2): 0.26
[2]
  solubility change mitosis (log2): -0.0771

## CEP290
[1]
  solubility in G1/S (log2): 0.253
[2]
  solubility change mitosis (log2): 0.0705

## CIC
[1]
  solubility in G1/S (log2): -0.00578
[2]
  solubility change mitosis (log2): -0.0541

## CLK3
[1]
  solubility in G1/S (log2): -1.26
[2]
  solubility change mitosis (log2): 0.423

## DDX60
[1]
  solubility in G1/S (log2): -0.517
[2]
  solubility change mitosis (log2): -0.0365

## DOCK4
[1]
  solubility in G1/S (log2): -0.259
[2]
  solubility change mitosis (log2): 0.0146

## LMTK2
[1]
  solubility in G1/S (log2): -0.313
[2]
  solubility change mitosis (log2): -0.217

## MAAAAASGAGGAAGAGTGGAGPAGRLLPPPAPGSPAAPAAVSPAAGQPRPPAPASRGPMPARIGYYEIDRTIGKGNFAVVKRATHLVTKAKVAIKIIDKTQLDEENLKKIFREVQIMKMLCHPHIIRLYQVMETERMIYLVTEYASGGEIFDHLVAHGRMAEKEARRKFKQIVTAVYFCHCRNIVHRDLKAENLLLDANLNIKIADFGFSNLFTPGQLLKTWCGSPPYAAPELFEGKEYDGPKVDIWSLGVVLYVLVCGALPFDGSTLQNLRARVLSGKFRIPFFMSTECEHLIRHMLVLDPNKRLSMEQICKHKWMKLGDADPNFDRLIAECQQLKEERQVDPLNEDVLLAMEDMGLDKEQTLQSLRSDAYDHYSAIYSLLCDRHKRHKTLRLGALPSMPRALAFQAPVNIQAEQAGTAMNISVPQVQLINPENQIVEPDGTLNLDSDEGEEPSPEALVRYLSMRRHTVGVADPRTEVMEDLQKLLPGFPGVNPQAPFLQVAPNVNFMHNLLPMQNLQPTGQLEYKEQSLLQPPTLQLLNGMGPLGRRASDGGANIQLHAQQLLKRPRGPSPLVTMTPAVPAVTPVDEESSDGEPDQEAVQSSTYKDSNTLHLPTERFSPVRRFSDGAASIQAFKAHLEKMGNNSSIKQLQQECEQLQKMYGGQIDERTLEKTQQQHMLYQQEQHHQILQQQIQDSICPPQPSPPLQAACENQPALLTHQLQRLRIQPSSPPPNHPNNHLFRQPSNSPPPMSSAMIQPHGAASSSQFQGLPSRSAIFQQQPENCSSPPNVALTCLGMQQPAQSQQVTIQVQEPVDMLSNMPGTAAGSSGRGISISPSAGQMQMQHRTNLMATLSYGHRPLSKQLSADSAEAHSLNVNRFSPANYDQAHLHPHLFSDQSRGSPSSYSPSTGVGFSPTQALKVPPLDQFPTFPPSAHQQPPHYTTSALQQALLSPTPPDYTRHQQVPHILQGLLSPRHSLTGHSDIRLPPTEFAQLIKRQQQQRQQQQQQQQQQEYQELFRHMNQGDAGSLAPSLGGQSMTERQALSYQNADSYHHHTSPQHLLQIRAQECVSQASSPTPPHGYAHQPALMHSESMEEDCSCEGAKDGFQDSKSSSTLTKGCHDSPLLLSTGGPGDPESLLGTVSHAQELGIHPYGHQPTAAFSKNKVPSREPVIGNCMDRSSPGQAVELPDHNGLGYPARPSVHEHHRPRALQRHHTIQNSDDAYVQLDNLPGMSLVAGKALSSARMSDAVLSQSSLMGSQQFQDGENEECGASLGGHEHPDLSDGSQHLNSSCYPSTCITDILLSYKHPEVSFSMEQAGV [SIK3]
[1]
  solubility in G1/S (log2): -0.387
[2]
  solubility change mitosis (log2): 0.04

## MAAAAVSSAKRSLRGELKQRLRAMSAEERLRQSRVLSQKVIAHSEYQKSKRISIFLSMQDEIETEEIIKDIFQRGKICFIPRYRFQSNHMDMVRIESPEEISLLPKTSWNIPQPGEGDVREEALSTGGLDLIFMPGLGFDKHGNRLGRGKGYYDAYLKRCLQHQEVKPYTLALAFKEQICLQVPVNENDMKVDEVLYEDSSTA [MTHFS]
[1]
  solubility in G1/S (log2): 0.146
[2]
  solubility change mitosis (log2): 0.0622

## MAAATLTSKLYSLLFRRTSTFALTIIVGVMFFERAFDQGADAIYDHINEGKLWKHIKHKYENK [UQCR10]
[1]
  solubility in G1/S (log2): -0.233
[2]
  solubility change mitosis (log2): 0.0588

## MAFIRKKQQEQQLQLYSKERFSLLLLNLEEYYFEQHRANHILHKGSHHERKIRGSLKICSKSVIFEPDSISQPIIKIPLRDCIKIGKHGENGANRHFTKAKSGGISLIFSQVYFIKEHNVVAPYKIERGKMEYVFELDVPGKVEDVVETLLQLHRASCLDKLGDQTAMITAILQSRLARTSFDKNRFQNISEKLHMECKAEMVTPLVTNPGHVCITDTNLYFQPLNGYPKPVVQITLQDVRRIYKRRHGLMPLGLEVFCTEDDLCSDIYLKFYEPQDRDDLYFYIATYLEHHVAEHTAESYMLQWQRGHLSNYQYLLHLNNLADRSCNDLSQYPVFPWIIHDYSSSELDLSNPGTFRDLSKPVGALNKERLERLLTRYQEMPEPKFMYGSHYSSPGYVLFYLVRIAPEYMLCLQNGRFDNADRMFNSIAETWKNCLDGATDFKELIPEFYGDDVSFLVNSLKLDLGKRQGGQMVDDVELPPWASSPEDFLQKSKDALESNYVSEHLHEWIDLIFGYKQKGSDAVGAHNVFHPLTYEGGVDLNSIQDPDEKVAMLTQILEFGQTPKQLFVTPHPRRITPKFKSLSQTSSYNASMADSPGEESFEDLTEESKTLAWNNITKLQLHEHYKIHKEAVTGITVSRNGSSVFTTSQDSTLKMFSKESKMLQRSISFSNMALSSCLLLPGDATVITSSWDNNVYFYSIAFGRRQDTLMGHDDAVSKICWHDNRLYSASWDSTVKVWSGVPAEMPGTKRHHFDLLAELEHDVSVDTISLNAASTLLVSGTKEGTVNIWDLTTATLMHQIPCHSGIVCDTAFSPDSRHVLSTGTDGCLNVIDVQTGMLISSMTSDEPQRCFVWDGNSVLSGSQSGELLVWDLLGAKISERIQGHTGAVTCIWMNEQCSSIITGGEDRQIIFWKLQY [NSMAF]
[3]; [4]
  thermal stability score: -0.603
[3]; cell cycle stage: mitosis
  thermal stability score: 0.514
[2]
  solubility change mitosis (log2): -0.221

## MASDSGNQGTLCTLEFAVQMTCQSCVDAVRKSLQGVAGVQDVEVHLEDQMVLVHTTLPSQEVQALLEGTGRQAVLKGMGSGQLQNLGAAVAILGGPGTVQGVVRFLQLTPERCLIEGTIDGLEPGLHGLHVHQYGDLTNNCNSCGNHFNPDGASHGGPQDSDRHRGDLGNVRADADGRAIFRMEDEQLKVWDVIGRSLIIDEGEDDLGRGGHPLSKITGNSGERLACGIIARSAGLFQNPKQICSCDGLTIWEERGRPIAGKGRKESAQPPAHL [CCS]
[3]; [4]
  thermal stability score: 0.914
[3]; cell cycle stage: mitosis
  thermal stability score: 0.694
[2]
  solubility change mitosis (log2): 0.0319

## MGLTISSLFSRLFGKKQMRILMVGLDAAGKTTILYKLKLGEIVTTIPTIGFNVETVEYKNICFTVWDVGGQDRIRPLWKHYFQNTQGLIFVVDSNDRERIQEVADELQKMLLVDELRDAVLLLFANKQDLPNAMAISEMTDKLGLQSLRNRTWYVQATCATQGTGLYEGLDWLSNELSKR [ARF4]
[3]; [4]
  thermal stability score: 4.99
[3]; cell cycle stage: mitosis
  thermal stability score: 6.18
[2]
  solubility change mitosis (log2): -0.374

## MYRTKVGLKDRQQLYKLIISQLLYDGYISIANGLINEIKPQSVCAPSEQLLHLIKLGMENDDTAVQYAIGRSDTVAPGTGIDLEFDADVQTMSPEASEYETCYVTSHKGPCRVATYSRDGQLIATGSADASIKILDTERMLAKSAMPIEVMMNETAQQNMENHPVIRTLYDHVDEVTCLAFHPTEQILASGSRDYTLKLFDYSKPSAKRAFKYIQEAEMLRSISFHPSGDFILVGTQHPTLRLYDINTFQCFVSCNPQDQHTDAICSVNYNSSANMYVTGSKDGCIKLWDGVSNRCITTFEKAHDGAEVCSAIFSKNSKYILSSGKDSVAKLWEISTGRTLVRYTGAGLSGRQVHRTQAVFNHTEDYVLLPDERTISLCCWDSRTAERRNLLSLGHNNIVRCIVHSPTNPGFMTCSDDFRARFWYRRSTTD [CSTF1]
[3]; [4]
  thermal stability score: -1.59
[3]; cell cycle stage: mitosis
  thermal stability score: -2.67
[2]
  solubility change mitosis (log2): -0.043
